The values that follow come from patent US20260258115A1 (MAPP BIOPHARMACEUTICAL, published 2026).

Where a chain is given by its changes, count along the chain named.

The target of assay [1] is T1, RSV prefusion F (preF), subtype B (respiratory syncytial virus subtype B).
T1 construct: also called Prefusion subtype B
Briefly: BLI, IgG.

The target in assay [2] is RSV F on RSV subtype A virus (mKate-RSV A2) (respiratory syncytial virus A2, UniProt P03420 26-574). Briefly: cell-based or functional assay.
Assay [3] has as its target RSV F on RSV subtype B virus (mKate-RSV B 18537) (respiratory syncytial virus B 18537, UniProt P13843 26-574). Description: cell-based or functional assay.
Assay [4] addresses T2, RSV postfusion F (postF), subtype A (respiratory syncytial virus subtype A, UniProt P03420 26-513).
T2 construct: also called Postfusion subtype A; F deltaFP
Description: BLI. In general terms: Biolayer interferometry detects binding as a change in optical thickness at a sensor tip.

B1: ADI-14336 (antibody, V domains shown)
VH: EVQLLESGGEVKKPGASVKVSCKASGYTFTNYGISWVRQAPGQGLEWMGWISAYNGNTNYAQKLQGRVTMTTDTSTSTAYMEVRRLRSDDTAVYYCAREPPVIAAGDFQHWGQGTLVTVSS
VL: DIVMTQTPLSLPVTLGQPASISCRSSQSLVHSDTNIYLSWFQQRPGQSPRRLIYKVSNRDSGVPDRFSGSGSGTDFTLRISRVEAEDVGVYYCMQGTHWPPDFGQGTRLEIK
notes: full-length IgG; also called Ab 4
Regarding B1, the Kd – broadly, the free concentration of one partner at which half of the binding sites on the other are occupied at equilibrium, for simple one-to-one binding – in assay [1] is 2.65 nM. Moreover, in assay [2], the “Neut IC50 subtype A” value worked out at 0.07 µg/mL. Moreover, the “Neut IC50 subtype B” value in assay [3] was 0.09 µg/mL.

B2: ADI-19432 (antibody, V domains shown)
VH: QVQLVQSGAEVKKPGASVKVSCKVSGYTLTELSMHWVRQAPGKGLEWMGGFDPEDGETIYAQKFQGRVTMTEDTSTDTAYMELSSLRSEDTAVYYCATEREEGGYSGYDDAFDIWGQGTMVTVSS
VL: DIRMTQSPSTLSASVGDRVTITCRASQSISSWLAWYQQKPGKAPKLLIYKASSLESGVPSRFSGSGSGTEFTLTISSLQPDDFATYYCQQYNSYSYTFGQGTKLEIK
notes: full-length IgG
As to B2, in assay [4], the binding result was “no binding”. Also, the “Neut IC50 subtype A” value in assay [2] amounted to 11 µg/mL.

B3: ADI-19427 (antibody, V domains shown)
VH: EVQLVESGGGLVKPGGSLRLSCAASGFTFSSYSMNWVRQAPGKGLEWVSSISSSSSFISYADSVKGRFTISRDSAKNSLYLQMNSLRAEDTAVYYCARDHPNWNGLAYFDYWGQGTLVTVSS
VL: QSVLTQPPSISGAPGQRVTISCTGSSSNIGAGYDVQWHQQLPGTAPKLLIYGNSNRPSGVPDRFSGSKSGTSASLAITGLQAEDEADYYCQSYDSSLSGWVFGGGTKLTVL
notes: full-length IgG
B3: the binding result in assay [4] is “no binding”. The Kd in assay [1] was determined as 0.5 nM. Besides, the “Neut IC50 subtype A” value in assay [2] stood at 0.01 µg/mL. For the same molecule, the “Neut IC50 subtype B” value in assay [3] stood at 0.03 µg/mL.

B4: ADI-24859 (antibody, V domains shown)
VH: EVQLLESGGGLVKPGGSLRLSCAASGFTFSSYSMNWVRQAPGKGLEWVSSISSSSSYIYYADSVKGRFTISRDNAKNSLYLQMNSLRAEDTAVYYCARDGSPINWVSPFPFDYWGQGTLVTVSS
VL: B3 VL with S2P, I10V, Q36H, H38Y, W100S, K107Q
notes: full-length IgG; also called Ab 419
As to B4, the binding result in assay [4] is reported as “no binding”. Binding in assay [1] was characterised by a dissociation constant (Kd) of 4.95 nM. Besides, the “Neut IC50 subtype A” value in assay [2] was 0.58 µg/mL.

B5: ADI-25478 (antibody, V domains shown)
VH: EVQLLESGGGLVKPGGSLRLSCAASGFTFSSYSMNWVRQAPGKGLEWVSSISSSSSYIYYADSVKGRFTISRDNAKNSLYLQMNSLRAEDTAVYYCARLDYSNYYYYMDVWGKGTTVTVSS
VL: B3 VL with S2P, I10V, Q36H, H38Y, W100Y, G104T
notes: full-length IgG
On to B5, for which the binding result in assay [4] is “no binding”. The Kd in assay [1] was 6.43 nM. Also, the “Neut IC50 subtype A” value in assay [2] was determined as 2.18 µg/mL. For the same molecule, the “Neut IC50 subtype B” value in assay [3] was 3.52 µg/mL.

B6: ADI-19431 (antibody, V domains shown)
VH: EVQLVESGGGLVKPGGSLRLSCAASGFTFSSYSMNWVRQAPGKGLEWVSSISSSSSYIYYADSVKGRFTISRDNAKNSLYLQMNSLRAEDTAVYYCARELYDYVWGSYRDYWGQGTLVTVSS
VL: B3 VL with S2P, V3G, I10V, Q36H, H38Y, W100S, L108V
notes: full-length IgG
Regarding B6, the binding result in assay [4] is given as “no binding”. Further, binding in assay [1] was characterised by a dissociation constant (Kd) of 3.16 nM. Further, in assay [2], the “Neut IC50 subtype A” value stood at 4.35 µg/mL. For the same molecule, the “Neut IC50 subtype B” value in assay [3] is 0.17 µg/mL.

B7: ADI-24799 (antibody, V domains shown)
VH: EVQLVESGGGLVKPGGSLRLSCAASGFTFSSYSMNWVRQAPGKGLEWVSSISSSSSYIYYADSVKGRFTISRDNAKNSLYLQMNSLRAEDTAVYYCAREGRDGYNYYFDYWGQGTLVTVSS
VL: B3 VL with I10V, Q36H, H38Y, W100S
notes: full-length IgG
Consider B7, for which, in assay [4], the binding result is listed as “no binding”. Moreover, the affinity in assay [1], expressed as Kd, was 19 nM. Further, in assay [2], the “Neut IC50 subtype A” value amounted to 11.5 µg/mL.

B8: ADI-19428 (antibody, V domains shown)
VH: EVQLLESGGGLVKPGGSLRLSCAASGFTFSSYSMNWVRQAPGKGLEWVSSISSSSSYIYYADSVKGRFTISRDNAKNSLYLQMNSLRAEDTAVYYCARDSCSGGSCYSPRFDPWGQGTLVTVSS
VL: QSVLTQPPSVSGAPGQRVTISCTGSSSNIGAGYDVHWYQQLPGTAPKLLIYGNSNRPSGVPDRFSGSKSGTSASLAITGLQAEDEADYYCQSYDSTVVFGGGTKLTVL
notes: full-length IgG
For B8, the binding result in assay [4] is recorded as “no binding”. Besides, in assay [1], the Kd is 16.7 nM. Further, in assay [2], the “Neut IC50 subtype A” value came out at 3.25 µg/mL.

B9: ADI-19433 (antibody, V domains shown)
VH: B7 VH with E99A, G100P, R101P, D102S, G103V, Y104G, N105G, Y106W, Y110L, Q113R
VL: B8 VL with S2P, T96S, V97L
notes: full-length IgG
As for B9, the binding result in assay [4] is “no binding”. The “Neut IC50 subtype A” value in assay [2] stood at 1.56 µg/mL.

B10: ADI-19494 (antibody, V domains shown)
VH: QVQLVQSGAEVKKPGSSVKVSCKASGGTFSSYVISWVRQAPGQGLEWMGGIIPIFGTTYYAQKFQDRVTITTDESTSTAYMELSSLRSEDTAVYYCARDLRYRYNAYDGADAFDIWGQGTTVTVSS
VL: QSALTQPASVSGSPGQSITISCTGTSSDVGGYNYVSWYQQHPGKAPKLMIFEVSNRPSGVSNRFSGSKSGNTASLTISGLQAEDEADYYCTSYTKSNSVVFGGGTKLTVL
notes: full-length IgG
For the molecule B10, the binding result in assay [4] is recorded as “no binding”. Further, the “Neut IC50 subtype A” value in assay [2] stood at 0.86 µg/mL.

B11: ADI-24827 (antibody, V domains shown)
VH: EVQLVESGGGLVQPGGSLRLSCAASGFTVSSNYMSWVRQAPGKGLEWVSVIYSDGSTYYADSVKGRFTISRHNSKNTLYLQMNSLRAEDTAVYYCARCSTYGDYIDWYFDLWGRGTLVTVSS
VL: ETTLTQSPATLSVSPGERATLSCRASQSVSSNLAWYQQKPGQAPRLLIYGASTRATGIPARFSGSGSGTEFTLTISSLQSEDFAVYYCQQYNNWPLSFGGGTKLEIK
notes: full-length IgG
B11: in assay [4], the binding result is given as “no binding”. This molecule came in with a Kd in assay [1] of 6.62 nM. Further, the “Neut IC50 subtype A” value in assay [2] was determined as 0.02 µg/mL.

B12: ADI-14334 (antibody, V domains shown)
VH: EVQLVESGGGLVKPGGSLRLSCAASGVTVSSYYMTWVRQAPGKGLEFISDISSSSTYTNYADSVKGRFTISRDNAKSSLYLQMNNLRAEDTAVYYCARLGITVTGVGYFDLWGRGTLVTVSS
VL: QPGLTQPPSVSGAPGQRVTISCTGSSSNIGAGYDVHWYQQLPGTAPKLLIHDNNNRPSGVPDRFSGSKSGTSASLAITGLQVEDEADYYCQSYDSSLSNYVFGTGTKLTVL
notes: full-length IgG; also called Ab 2
On to B12, for which binding in assay [1] was characterised by a dissociation constant (Kd) of 0.622 nM. Moreover, in assay [2], the “Neut IC50 subtype A” value was determined as 0.05 µg/mL. Moreover, the “Neut IC50 subtype B” value in assay [3] is 0.11 µg/mL.

B13: ADI-14388 (antibody, V domains shown)
VH: EVQLVESGGGVVQPGRSLRLSCAASGFTFSSYPMHWVRQAPGKGLEWVAVISYDGSNKYYADSVKGRFTISRDNSKNTLYLQMNSLRAEDTAVYSCARAQSAAIFDHWGQGTLVTVSS
VL: QAVVTQEPSLTVSPGGTVTLTCASSTGAVTSGYYPNWFQQKPGQAPRALIYTTSKRHSWTPARFSGSLLGGKAALTLSGVQPEDEADYYCLLYYGGANWVFGGGTKLTVL
notes: full-length IgG; also called Ab 55
On to B13, for which the binding result in assay [4] is reported as “no binding”. Moreover, in assay [1], binding was put at a Kd of 5.5 nM. Besides, the “Neut IC50 subtype B” value in assay [3] worked out at 3.07 µg/mL.

B14: ADI-19459 (antibody, V domains shown)
VH: QVQLVESGGGLVQPGGSLRLSCAASGFTVSSNYMSWVRQAPGKGLEWVSVIYSGGSTYYADSVKGRFTISRDNSKNTLYLQMNSLRAEDTAVYYCAREALGMDHWYFDLWGRGTLVTVSS
VL: SYELMQPPSVSVAPGKTARITCGGNNIGSKSVHWYQQKPGQAPVLVVYDDSDRPSGIPERFSGSNSGNTATLTISRVEAGDEADYYCQVWDSSSDHPVFGGGTKVTVL
notes: full-length IgG
B14: the dissociation constant Kd in assay [1] came to 1.45 nM. Besides, the “Neut IC50 subtype A” value in assay [2] came to 0.05 µg/mL. In assay [3], the “Neut IC50 subtype B” value is 0.1 µg/mL.

B15: ADI-19448 (antibody, V domains shown)
VH: EVQLLESGGGLVKPGGSLRLSCAASGFTFSSYSMNWVRQAPGKGLEWVSSISSSSSYIYYADSVKGRFTISRDNAKNSLYLQMNSLRAEDTAVYYCARELLDPGIAAAGFDYWGQGTLVTVSS
VL: QSVLTQPPSVSGAPGQRVTISCTGSSSNIGAGYDVHWYQQLPGTAPKLLIYGNSNRPSGVPDRFSGSKSGTSASLAITGLQAEDEADYYCQSYDSSLSVNYVFGTGTKVTVL
notes: full-length IgG
Take B15: the binding result in assay [4] is listed as “no binding”. In assay [1], this molecule yielded a Kd of 5.58 nM. In addition, the “Neut IC50 subtype A” value in assay [2] was determined as 9.64 µg/mL.

B16: ADI-25479 (antibody, V domains shown)
VH: EVQLVESGGGLVKPGGSLRLSCAASGFTFSSYSMNWVRQAPGKGLEWVSSISSSSSYIYYADSVKGRFTISRDNAKNSLYLQMNSLRAEDTAVYYCARGGYSYGAYYYYYMDVWGKGTTVTVSS
VL: B15 VL with V99G, N100Y, Y101W, T105G, V109L
notes: full-length IgG
For B16, the binding result in assay [4] is listed as “no binding”. This molecule came in with a Kd in assay [1] of 4.29 nM. Moreover, the “Neut IC50 subtype A” value in assay [2] came out at 0.24 µg/mL. Besides, the “Neut IC50 subtype B” value in assay [3] was determined as 0.29 µg/mL.

B17: ADI-14391 (antibody, V domains shown)
VH: QVQLVESGGGLVQPGGSLRLSCAAAGFSFSNYAMSWVRQAPGKGLEWVAVISGNAGSTYYAESVKGRFTISRDNSKNTLHLQMNSLRGEDTAVYYCAKPPGIAVAGEYYWYFDLWGRGTLVTVSS
VL: QVQLMQPPSVSVSPGQTARITCSGDALPRENAYWYQQKSGQAPVLVIYEDSKRPSGIPERFSGSSSGTMATLTITGAQVEDEADYYCYSTDTSAYHWVFGGGTKLTVL
notes: full-length IgG; also called Ab 58
On to B17, for which, in assay [4], the binding result is “no binding”. This molecule also gave a dissociation constant (Kd) in assay [1] of 5.36 nM. For the same molecule, the “Neut IC50 subtype B” value in assay [3] amounted to 22.2 µg/mL.

B18: ADI-24812 (antibody, V domains shown)
VH: EVQLVESGGGLVQPGGSLRLSCAASGFSFSTYAMSWVRQAPGKGLEWVSAISGGGGSTYYADSVKGRFTISRDNSKNTLYLQVNSLRAEDTAVYYCARGGYCSSDSCYPFDFWGQGTLVTVSS
VL: QPVLTQPPSVSVSPGQTAMITCSGDALPKQYAYWYQQKPGQAPVLVIYKDSERPSGIPERFSGSSSGTTVTLTISGVQAEDEADYYCQSADNSGSYAVFGGGTQLTVL
notes: full-length IgG
As to B18, in assay [4], the binding result was “no binding”. The same molecule returned a Kd in assay [1] of 7.58 nM. For the same molecule, in assay [2], the “Neut IC50 subtype A” value turned out to be 0.18 µg/mL.
